The target of this test is HRP-labelled monoclonal antibody targeting PRO-C22. Kind of test: competitive ELISA, standard peptide against coated Biotin-… for the HRP-mAb. Background: ELISA stands for enzyme-linked immunosorbent assay.

For orientation: IC50 means the concentration that inhibits the measured activity by half.

Chain of HRP-labelled monoclonal antibody targeting PRO-C22 (VH, as listed by the source limits assumed, chain 1 of 2): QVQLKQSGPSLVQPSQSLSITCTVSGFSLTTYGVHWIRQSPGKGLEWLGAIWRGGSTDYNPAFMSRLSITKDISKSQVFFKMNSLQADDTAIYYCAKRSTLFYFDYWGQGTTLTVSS
Chain of HRP-labelled monoclonal antibody targeting PRO-C22 (VL, as listed by the source limits assumed, chain 2 of 2): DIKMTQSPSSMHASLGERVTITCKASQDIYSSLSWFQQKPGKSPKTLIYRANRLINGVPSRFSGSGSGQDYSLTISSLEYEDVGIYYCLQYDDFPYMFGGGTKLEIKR

As to GPPGPPGQCDPSQCAYFASLAARPGNVKGP [30 AA standard peptide …], the IC50 amounted to 8.15 ng/mL.
